{
  "source": "patent US20160058848A1",
  "key": {"[1]": {"biological_target": "T1, human corin mutant R801A, Q9Y5Q5", "T1 chain": "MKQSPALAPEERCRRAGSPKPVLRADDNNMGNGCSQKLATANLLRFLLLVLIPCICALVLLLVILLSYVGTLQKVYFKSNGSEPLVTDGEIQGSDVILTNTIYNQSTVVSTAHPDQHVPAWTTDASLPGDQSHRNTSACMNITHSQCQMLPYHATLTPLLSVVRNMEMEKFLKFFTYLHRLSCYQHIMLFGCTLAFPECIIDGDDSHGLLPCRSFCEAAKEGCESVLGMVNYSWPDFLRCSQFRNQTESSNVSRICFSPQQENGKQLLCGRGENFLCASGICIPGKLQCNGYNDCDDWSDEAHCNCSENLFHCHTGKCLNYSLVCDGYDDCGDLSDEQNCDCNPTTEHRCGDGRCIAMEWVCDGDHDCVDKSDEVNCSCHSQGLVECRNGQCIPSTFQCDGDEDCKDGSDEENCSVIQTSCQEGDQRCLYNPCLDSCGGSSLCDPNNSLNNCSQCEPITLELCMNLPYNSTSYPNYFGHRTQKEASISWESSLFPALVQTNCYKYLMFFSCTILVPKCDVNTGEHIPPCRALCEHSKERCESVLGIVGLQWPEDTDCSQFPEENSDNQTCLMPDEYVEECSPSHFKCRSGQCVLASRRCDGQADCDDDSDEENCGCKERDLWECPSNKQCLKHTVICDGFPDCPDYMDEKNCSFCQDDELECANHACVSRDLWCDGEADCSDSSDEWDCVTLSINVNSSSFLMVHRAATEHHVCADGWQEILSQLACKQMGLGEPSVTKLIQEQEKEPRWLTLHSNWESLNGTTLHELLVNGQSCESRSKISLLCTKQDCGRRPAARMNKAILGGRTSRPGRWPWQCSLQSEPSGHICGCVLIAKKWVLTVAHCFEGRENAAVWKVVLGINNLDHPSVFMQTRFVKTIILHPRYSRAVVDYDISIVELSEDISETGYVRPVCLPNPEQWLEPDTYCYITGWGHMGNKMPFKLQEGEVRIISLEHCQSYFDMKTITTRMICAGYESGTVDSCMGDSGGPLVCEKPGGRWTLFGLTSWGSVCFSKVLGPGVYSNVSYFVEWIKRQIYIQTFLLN"}, "[2]": {"biological_target": "T2, human corin variant T555I, Q9Y5Q5", "T2 chain": "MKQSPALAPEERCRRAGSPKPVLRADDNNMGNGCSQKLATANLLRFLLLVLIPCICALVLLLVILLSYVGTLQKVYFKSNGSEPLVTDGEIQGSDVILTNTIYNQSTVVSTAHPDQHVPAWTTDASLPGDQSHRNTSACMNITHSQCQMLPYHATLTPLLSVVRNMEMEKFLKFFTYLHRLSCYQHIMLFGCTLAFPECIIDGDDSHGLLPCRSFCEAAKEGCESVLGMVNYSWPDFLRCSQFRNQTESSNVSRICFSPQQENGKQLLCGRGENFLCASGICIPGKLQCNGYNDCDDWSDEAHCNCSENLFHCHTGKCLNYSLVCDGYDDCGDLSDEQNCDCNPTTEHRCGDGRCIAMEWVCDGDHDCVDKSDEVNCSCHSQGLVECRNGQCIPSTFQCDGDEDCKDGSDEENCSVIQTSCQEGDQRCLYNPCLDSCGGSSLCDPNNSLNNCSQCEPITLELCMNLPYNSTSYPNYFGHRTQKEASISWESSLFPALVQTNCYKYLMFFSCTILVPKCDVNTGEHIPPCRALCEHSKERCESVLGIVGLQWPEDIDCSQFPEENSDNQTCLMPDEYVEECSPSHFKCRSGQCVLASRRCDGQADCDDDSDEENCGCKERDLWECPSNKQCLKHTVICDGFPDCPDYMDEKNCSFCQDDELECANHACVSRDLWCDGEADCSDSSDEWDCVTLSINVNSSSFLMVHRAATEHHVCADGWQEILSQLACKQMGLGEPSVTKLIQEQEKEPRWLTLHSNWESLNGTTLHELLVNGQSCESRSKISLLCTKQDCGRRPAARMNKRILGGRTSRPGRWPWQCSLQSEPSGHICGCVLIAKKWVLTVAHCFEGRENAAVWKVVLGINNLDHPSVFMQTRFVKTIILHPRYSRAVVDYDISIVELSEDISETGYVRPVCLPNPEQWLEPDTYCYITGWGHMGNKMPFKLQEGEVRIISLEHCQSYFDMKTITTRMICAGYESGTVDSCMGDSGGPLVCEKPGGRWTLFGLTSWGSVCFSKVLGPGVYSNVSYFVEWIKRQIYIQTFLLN"}, "[3]": {"biological_target": "T3, human corin variant Q568P, Q9Y5Q5", "T3 chain": "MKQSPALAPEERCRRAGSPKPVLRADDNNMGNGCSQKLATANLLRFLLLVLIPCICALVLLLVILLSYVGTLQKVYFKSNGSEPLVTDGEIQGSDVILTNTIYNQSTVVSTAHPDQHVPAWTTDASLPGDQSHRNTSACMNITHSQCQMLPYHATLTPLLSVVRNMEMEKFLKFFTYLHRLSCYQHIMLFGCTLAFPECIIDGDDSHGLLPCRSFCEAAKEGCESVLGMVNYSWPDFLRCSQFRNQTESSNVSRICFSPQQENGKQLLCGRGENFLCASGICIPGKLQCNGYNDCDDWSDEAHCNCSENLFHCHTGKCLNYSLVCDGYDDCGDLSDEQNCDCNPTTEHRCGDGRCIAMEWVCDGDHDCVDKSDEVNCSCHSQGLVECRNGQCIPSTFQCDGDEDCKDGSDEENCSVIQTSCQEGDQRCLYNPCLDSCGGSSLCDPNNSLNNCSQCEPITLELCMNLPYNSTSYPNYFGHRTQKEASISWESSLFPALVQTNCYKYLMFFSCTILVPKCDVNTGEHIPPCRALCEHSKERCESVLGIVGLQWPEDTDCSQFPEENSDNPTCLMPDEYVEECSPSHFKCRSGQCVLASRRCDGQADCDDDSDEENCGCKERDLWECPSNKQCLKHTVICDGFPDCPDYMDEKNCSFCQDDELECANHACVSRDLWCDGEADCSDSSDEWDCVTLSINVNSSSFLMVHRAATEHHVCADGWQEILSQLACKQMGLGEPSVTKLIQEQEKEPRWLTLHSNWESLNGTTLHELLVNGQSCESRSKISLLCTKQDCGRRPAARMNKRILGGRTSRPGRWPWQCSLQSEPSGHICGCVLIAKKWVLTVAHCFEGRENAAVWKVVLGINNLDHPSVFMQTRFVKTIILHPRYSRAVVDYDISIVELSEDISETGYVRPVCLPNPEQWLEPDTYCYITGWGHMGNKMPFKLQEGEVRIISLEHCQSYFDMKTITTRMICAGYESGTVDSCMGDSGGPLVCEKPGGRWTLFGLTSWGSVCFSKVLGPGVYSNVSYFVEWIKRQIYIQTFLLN"}},
  "data": [
    {"protein": "recombinant human proprotein convertase subtilisin/kexin-6 (PCSK6) with a C-terminal flag tag (protein) QVRSDPQALYFNDPIWSNMWYLHCGDKNSRCRSEMNVQAAWKRGYTGKNVVVTILDDGIERNHPDLAPNYDSYASYDVNGNDYDPSPRYDASNENKHGTRCAGEVAASANNSYCIVGIAYNAKIGGIRMLDGDVTDVVEAKSLGIRPNYIDIYSASWGPDDDGKTVDGPGRLAKQAFEYGIKKGRQGLGSIFVWASGNGGREGDYCSCDGYTNSIYTISVSSATENGYKPWYLEECASTLATTYSSGAFYERKIVTTDLRQRCTDGHTGTSVSAPMVAGIIALALEANSQLTWRDVQHLLVKTSRPAHLKASDWKVNGAGHKVSHFYGFGLVDAEALVVEAKKWTAVPSQHMCVAASDKRPRSIPLVQVLRTTALTSACAEHSDQRVVYLEHVVVRTSISHPRRGDLQIYLVSPSGTKSQLLAKRLLDLSNEGFTNWEFMTVHCWGEKAEGQWTLEIQDLPSQVRNPEKQGKLKEWSLILYGTAEHPYHTFSAHQSRSRMLELSAPELEPPKAALSPSQVEVPEDEEDYTAQSTPGSANILQTSVCHPECGDKGCDGPNADQCLNCVHFSLGSVKTSRKCVSVCPLGYFGDTAARRCRRCHKGCETCSSRAATQCLSCRRGFYHHQEMNTCVTLCPAGFYADESQKNCLKCHPSCKKCVDEPEKCTVCKEGFSLARGSCIPDCEPGTYFDSELIRCGECHHTCGTCVGPGREECIHCAKNFHFHDWKCVPACGEGFYPEEMPGLPHKVCRRCDENCLSCAGSSRNCSRCKTGFTQLGTSCITNHTCSNADETFCEMVKSNRLCERKLFIQFCCRTCLLAG", "values": [
      {"measurement": "PCSK6-mediated activation cleavage (Western blot, densitometry)", "setting": "[1]", "result": "In controls, no activation cleavage was detected in mutant R801A lacking the cleavage site"},
      {"measurement": "PCSK6-mediated activation cleavage (Western blot, densitometry)", "setting": "[2]", "result": "PCSK6-mediated activation cleavage was detected in corin WT and variants T555I or Q568P, but not variant T555I/Q568P"},
      {"measurement": "PCSK6-mediated activation cleavage (Western blot, densitometry)", "setting": "[3]", "result": "PCSK6-mediated activation cleavage was detected in corin WT and variants T555I or Q568P, but not variant T555I/Q568P"}
    ]}
  ]
}
